# Experimental data: US20240066137A1, “NOVEL PROTEIN CONJUGATE, AND USE THEREOF FOR PREVENTING OR TREATING NONALCOHOLIC STEATOHEPATITIS, OBESITY AND DIABETES” (ONEGENE BIOTECHNOLOGY INC., priority 2020, published 2024)
# Read-outs that look alike come from different tables or passages of the source.
# B1: rhFGF21: native FGF21, SEQ ID NO: 17 (protein)
# chain: HPIPDSSPLLQFGGQVRQRYLYTDDAQQTEAHLEIREDGTVGGAADQSPESLLQLKALKPGVIQILGVKTSRFLCQRPDGALYGSLHFDPEACSFRELLLEDGYNVYQSEAHGLPLHLPGNKSPHRDPAPRGPARFLPLPGLPPALPEPPGILAPQPPDVGSSDPLSMVGPSQGRSPSYAS
# modifications: FGF21 native
# Biological target: FGFR1/KLB (Homo sapiens, UniProt P11362+Q86Z14)
# Test: FGFR1/KLB functional assay (PathHunter)
# Assay type: cell-based
# Procedure: The cells were cultured to 70-80% full in a T-75 flask. The medium was removed and washed with 5 mL of the pre-warmed PBS. PBS was removed, and 2 mL of AssayComplete cell detachment reagent was added, and then incubated in an incubator at 37° C. and 5% CO2 for 3 minutes, and the attached cells were detached. It was mixed with 6 mL of AssayComplete cell plating 0 reagent, and the mixture was transferred to a 15 mL tube, centrifuged at 1,000 rpm for 3 minutes, and then again released in 5 mL of cell plating reagent. The number of cells was counted, and the concentration was allowed to be 500,000 cells/mL. It was transferred to a reservoir, and 40 μL per well was dispensed into a white 96-well half-area cell culture plate using a multi-channel pipette (20,000 cells/well). Only 40 μL of cell plating reagent was dispensed into the blank well. The cells were incubated in an incubator at 37° C. and 5% CO2 for 24 hours to allow to be attached.
# 10 μL of each of rhFGF21 (5×) and test sample (5×) prepared by 4-fold serial dilution was dispensed in duplicate and cultured at room temperature for 4 hours. 10 μL of AssayComplete cell plating 0 reagent was added to the control and blank wells. After the culture was completed, the medium was removed, and 50 μL of AssayComplete cell plating 0 reagent was added. 30 μL of Detection reagent was dispensed and reacted in a state where light was blocked at room temperature for 1 hour, and then the luminescence was measured with a plate reader.
# The luminescence of the sample in the plate was measured with a Synergy Neo2 instrument.
# The Delta RLU (relative luminescence unit) (ΔRLU) was calculated as follows.
# ΔRLU=RLUsample−RLUblank=Signal−background luminescence
# In addition, the fold induction relative to the control group was calculated as follows.
# The EC50 values were obtained based on fold induction values by each concentration using GraphPad Prism 8, as follows (curve-fitting of the log (agonist) vs. normalized response−variable slope equation).
# In order to test the activity levels of the native FGF21 and the FGF21 analogue at the cellular level (in vitro), the FGFR1/KLB functional assay was performed in the same manner as in Test Example 2.
# Chain of FGFR1/KLB (P11362 22-822): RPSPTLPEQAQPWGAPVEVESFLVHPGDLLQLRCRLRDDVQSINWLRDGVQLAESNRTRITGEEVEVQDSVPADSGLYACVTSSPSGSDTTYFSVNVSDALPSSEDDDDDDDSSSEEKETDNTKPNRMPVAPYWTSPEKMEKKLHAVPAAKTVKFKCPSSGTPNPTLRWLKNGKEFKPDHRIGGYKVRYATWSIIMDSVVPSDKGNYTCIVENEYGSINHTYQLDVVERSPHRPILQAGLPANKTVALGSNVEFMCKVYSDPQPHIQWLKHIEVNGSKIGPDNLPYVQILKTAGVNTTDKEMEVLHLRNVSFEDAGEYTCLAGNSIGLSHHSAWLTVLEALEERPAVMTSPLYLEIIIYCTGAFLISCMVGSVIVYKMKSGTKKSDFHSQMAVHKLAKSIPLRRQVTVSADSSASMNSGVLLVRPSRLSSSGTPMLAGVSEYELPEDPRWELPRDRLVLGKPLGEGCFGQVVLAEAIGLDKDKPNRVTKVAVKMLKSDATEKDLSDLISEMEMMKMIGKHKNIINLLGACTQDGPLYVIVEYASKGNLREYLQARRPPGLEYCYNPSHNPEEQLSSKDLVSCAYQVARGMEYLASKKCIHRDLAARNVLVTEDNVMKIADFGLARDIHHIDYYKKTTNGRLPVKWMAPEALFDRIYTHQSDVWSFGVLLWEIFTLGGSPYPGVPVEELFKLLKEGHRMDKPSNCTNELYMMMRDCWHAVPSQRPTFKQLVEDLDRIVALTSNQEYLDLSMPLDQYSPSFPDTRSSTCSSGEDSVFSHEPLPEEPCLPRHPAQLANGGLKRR
# Chain of FGFR1/KLB (Q86Z14 whole entry): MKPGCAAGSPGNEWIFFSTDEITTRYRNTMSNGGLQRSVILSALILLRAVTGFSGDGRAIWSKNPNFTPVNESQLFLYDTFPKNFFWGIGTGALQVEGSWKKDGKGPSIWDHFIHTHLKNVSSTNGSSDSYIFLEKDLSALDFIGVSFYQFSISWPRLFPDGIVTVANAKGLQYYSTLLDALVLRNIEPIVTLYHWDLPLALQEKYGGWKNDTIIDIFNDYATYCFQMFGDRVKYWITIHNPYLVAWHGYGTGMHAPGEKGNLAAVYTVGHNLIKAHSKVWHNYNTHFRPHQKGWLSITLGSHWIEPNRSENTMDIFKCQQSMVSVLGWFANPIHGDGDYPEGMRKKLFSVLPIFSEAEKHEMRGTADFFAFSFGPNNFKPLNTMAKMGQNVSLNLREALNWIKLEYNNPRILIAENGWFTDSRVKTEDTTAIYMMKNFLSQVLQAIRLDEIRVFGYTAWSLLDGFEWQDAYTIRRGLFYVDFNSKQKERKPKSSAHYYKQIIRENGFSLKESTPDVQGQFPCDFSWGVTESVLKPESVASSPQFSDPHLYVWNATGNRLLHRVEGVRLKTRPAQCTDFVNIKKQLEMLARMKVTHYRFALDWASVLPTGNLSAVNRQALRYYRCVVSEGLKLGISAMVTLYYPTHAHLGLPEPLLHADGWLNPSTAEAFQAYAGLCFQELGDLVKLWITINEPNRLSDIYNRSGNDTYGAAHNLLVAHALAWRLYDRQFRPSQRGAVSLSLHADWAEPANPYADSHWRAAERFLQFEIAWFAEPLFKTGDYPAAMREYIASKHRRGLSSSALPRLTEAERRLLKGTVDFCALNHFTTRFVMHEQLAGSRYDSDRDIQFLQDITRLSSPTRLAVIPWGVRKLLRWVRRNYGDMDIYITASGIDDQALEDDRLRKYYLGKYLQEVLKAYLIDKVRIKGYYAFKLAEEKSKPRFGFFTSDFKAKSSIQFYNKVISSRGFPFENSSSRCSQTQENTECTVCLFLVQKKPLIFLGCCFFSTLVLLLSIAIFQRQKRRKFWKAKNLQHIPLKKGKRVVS
molecule,measurement,setting,value
B1,EC50,"Test Example 2, mean of 2 runs, read-out: EC50, Mean",0.82 nM
same,EC50,"Test Example 2, run 1, read-out: EC50, 1",0.75 nM
same,EC50,"Test Example 2, run 2, read-out: EC50, 2",0.88 nM
same,EC50,"Test Example 9 screening, read-out: EC50",1.17 ± 0.56 nM
